Measured values: patent US20170137467A1 (CHROMOTEK, published 2017)
Changes are numbered by the printed parent chain. Square brackets hold non-standard residues; d marks the D form. GABA = NCCCC(=O)O

B1: BC2 nanobody (BC2-Nb) (VHH)
VHH: QVQLVESGGGLVQPGGSLTLSCTASGFTLDHYDIGWFRQAPGKEREGVSCINNSDDDTYYADSVKGRFTIFMDNAKDTVYLQMNSLKPEDTAIYYCAEARGCKRGRYEYDFWGQGTQVTVSS
notes: immobilised on agarose/sepharose beads in this assay; also called BC2 nanotrap (immobilised form); not shown: C-terminal 6xHis-tag added by pHEN6 vector
B2: BC2-NbR106S (VHH)
VHH: B1 VHH with R106S
notes: immobilised on beads in this assay; not shown: C-terminal 6xHis-tag added by pHEN6 vector

Key:
Assay in all cases: library pulldown, LC-MS of supernatant; ratio vs GFP-Nb control (0=captured, 1=not captured)
BC2T A5C(Abu) = target: T1, BC2T A5C(Abu) (human, SMILES …)
T1 construct: position 5 library, row C(Abu) / C*
T1 peptide: Ac-PDRK[GABA]AVSHWQQ-NH2
How it was run: (§1)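 Unbound peptide left in supernatant after 1 h pulldown in PBS/0.01% CHAPS measured by reversed-phase LC-MS (8–30% eluent B gradient, 20 min).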

BC2T K4N = target: T2, BC2T K4N (human)
T2 construct: position 4 library, row N
T2 peptide: Ac-PDRNAAVSHWQQ-NH2
How it was run: as §1

BC2T P1N = target: T3, BC2T P1N (human)
T3 construct: position 1 library, row N
T3 peptide: Ac-NDRKAAVSHWQQ-NH2
How it was run: as §1

BC2T A5P = target: T4, BC2T A5P (human)
T4 construct: position 5 library, row P
T4 peptide: Ac-PDRKPAVSHWQQ-NH2
How it was run: as §1

BC2T A5N = target: T5, BC2T A5N (human)
T5 construct: position 5 library, row N
T5 peptide: Ac-PDRKNAVSHWQQ-NH2
How it was run: as §1

BC2T K4D = target: T6, BC2T K4D (human)
T6 construct: position 4 library, row D
T6 peptide: Ac-PDRDAAVSHWQQ-NH2
How it was run: as §1

BC2T A5Y = target: T7, BC2T A5Y (human)
T7 construct: position 5 library, row Y
T7 peptide: Ac-PDRKYAVSHWQQ-NH2
How it was run: as §1

BC2T A5F = target: T8, BC2T A5F (human)
T8 construct: position 5 library, row F
T8 peptide: Ac-PDRKFAVSHWQQ-NH2
How it was run: as §1

BC2T A5E = target: T9, BC2T A5E (human)
T9 construct: position 5 library, row E
T9 peptide: Ac-PDRKEAVSHWQQ-NH2
How it was run: as §1

BC2T R3H = target: T10, BC2T R3H (human)
T10 construct: position 3 library (BC2TR3X), row H
T10 peptide: Ac-PDHKAAVSHWQQ-NH2
How it was run: as §1

BC2T V7D = target: T11, BC2T V7D (human)
T11 construct: position 7 library, row D
T11 peptide: Ac-PDRKAADSHWQQ-NH2
How it was run: as §1

BC2T P1T = target: T12, BC2T P1T (human)
T12 construct: position 1 library, row T
T12 peptide: Ac-TDRKAAVSHWQQ-NH2
How it was run: as §1

BC2T A6H = target: T13, BC2T A6H (human)
T13 construct: position 6 library (BC2TA6X), row H
T13 peptide: Ac-PDRKAHVSHWQQ-NH2
How it was run: as §1

BC2T D2H = target: T14, BC2T D2H (human)
T14 construct: position 2 library, row H
T14 peptide: Ac-PHRKAAVSHWQQ-NH2
How it was run: as §1

BC2T K4H = target: T15, BC2T K4H (human)
T15 construct: position 4 library, row H
T15 peptide: Ac-PDRHAAVSHWQQ-NH2
How it was run: as §1

BC2T K4T = target: T16, BC2T K4T (human)
T16 construct: position 4 library, row T
T16 peptide: Ac-PDRTAAVSHWQQ-NH2
How it was run: as §1

BC2T A5K = target: T17, BC2T A5K (human)
T17 construct: position 5 library, row K
T17 peptide: Ac-PDRKKAVSHWQQ-NH2
How it was run: as §1

BC2T K4P = target: T18, BC2T K4P (human)
T18 construct: position 4 library, row P
T18 peptide: Ac-PDRPAAVSHWQQ-NH2
How it was run: as §1

BC2T R3Y = target: T19, BC2T R3Y (human)
T19 construct: position 3 library (BC2TR3X), row Y
T19 peptide: Ac-PDYKAAVSHWQQ-NH2
How it was run: as §1

BC2T K4F = target: T20, BC2T K4F (human)
T20 construct: position 4 library, row F
T20 peptide: Ac-PDRFAAVSHWQQ-NH2
How it was run: as §1

BC2T D2P = target: T21, BC2T D2P (human)
T21 construct: position 2 library, row P
T21 peptide: Ac-PPRKAAVSHWQQ-NH2
How it was run: as §1

BC2T K4Q = target: T22, BC2T K4Q (human)
T22 construct: position 4 library, row Q
T22 peptide: Ac-PDRQAAVSHWQQ-NH2
How it was run: as §1

Row | Binder | ratio (BC2T A5C(Abu)) | ratio (BC2T K4N) | ratio (BC2T P1N) | ratio (BC2T A5P) | ratio (BC2T A5N) | ratio (BC2T K4D) | ratio (BC2T A5Y) | ratio (BC2T A5F) | ratio (BC2T A5E) | ratio (BC2T R3H) | ratio (BC2T V7D) | ratio (BC2T P1T) | ratio (BC2T A6H) | ratio (BC2T D2H) | ratio (BC2T K4H) | ratio (BC2T K4T) | ratio (BC2T A5K) | ratio (BC2T K4P) | ratio (BC2T R3Y) | ratio (BC2T K4F) | also measured
1 | B1 | 0.1 | 0.5 | 0.6 | 0.1 | 0.3 | 1 | 0.1 | 0.1 | 0.2 | 0.3 | 0.5 | 0.5 | 1.1 | 0.1 | 0.1 | 0.2 | 0.2 | 1 | 0.7 | 0.3 | ratio (BC2T D2P): 0.6; ratio (BC2T K4Q): 0.1
2 | B2 | 0.3 | 0.9 | 0.7 | 0.4 | 0.5 | 1 | 0.2 | 0.2 | 0.7 | 0.7 | 0.9 | 0.7 | 0.9 | 0.2 | 0.3 | 0.7 | 0.2 | 1 | 1 | 0.7 | ratio (BC2T D2P): 0.8; ratio (BC2T K4Q): 0.4
